The text below walks through data of patent publication US20030220247A1.

In the experiment the target is vitamin K-dependent gamma-glutamyl carboxylase. Kind of experiment: inhibition constant of the propeptide toward the carboxylase; assay not described in the example.

One may read the Ki as a measure of affinity in units of concentration, obtained from inhibition or displacement. The low end stands for tighter binding, the high end for weaker binding. consensus propeptide sequence: the Ki was determined as 0.43 nM.
